In patent US20230310559A1, “Use of Amylase or Maltose to Treat or Prevent Neurodegeneration” (St. Jude Children's Research Hospital, Inc., priority 2020, published 2023):
“Also recorded” adds a separate entry of the source.

What was measured:
[1] = Maltose assays of fly hemolymph and bodies; assay type: in vivo, Drosophila; conditions: Amyrel overexpression, in comparison with isogenic controls
Protocol: Maltose Assays. Flies were decapitated and placed in a perforated 0.6 mL tube resting in a 1.5 mL tube, which was centrifuged at 1700 g for 6 minutes at 4° C. to collect the hemolymph ([…], et al. (2009) Cell Metab. 10:199-207). Equal volumes of hemolymph (1 μL) were used for subsequent determination of maltose levels. To avoid interference from eye pigments (Al-Anzi, et al. (2010) PLoS ONE 5(8):e12353), flies (n=10/biological replicate) were decapitated and homogenized with a Next Advance BULLET BLENDER® and 0.5-mm zirconium beads in 100 μL of maltose assay buffer (MAB). Body homogenates were then collected after centrifugation at maximum speed for 10 minutes to remove cuticle debris. Subsequently, the quantification of maltose concentration in the hemolymph and bodies was done with the maltose assay kit (Sigma-Aldrich), according to manufacturer's instructions. In brief, hemolymph and body homogenates were diluted 1:40 in MAB. […] After 1 hour, the absorbance was read at 570 nm with a Tecan Infinite 200 Pro. Blank (0 maltose standards) readings were subtracted from all readings. Maltose levels were calculated from the standard curve after subtracting the absorbance read in the absence of glucosidase treatment, which accounts for background glucose levels, from the absorbance read in duplicate samples treated with glucosidase.

[2] = test system: Drosophila retina with mutant tau^V337M; experiment: Age-related retinal degeneration induced by mutant tau V337M; assay type: in vivo; conditions: overexpression in Drosophila
[3] = test system: Drosophila heads; experiment: Head transcriptome of flies with muscle-specific Amyrel overexpression; assay type: in vivo
[4] = test system: Huntingtin-polyQ72-GFP aggregates in the Drosophila retina; experiment: Analysis of pathogenic Huntingtin-polyQ72-GFP aggregation in Drosophila retina; assay type: in vivo; conditions: transgenic overexpression in Drosophila retinas during aging, compared to controls
Protocol: (§1) Cloning of Myokines and Fly Transgenesis. The coding sequences of Drosophila CG4666, CG8093, Amyrel, Ag5r2, Amy-d, and Amy-p were generated as synthetic minigenes and cloned into the pUASTattB vector with the EcoRI and KpnI restriction enzymes. These plasmids were then injected into attP40 and/or attP2 by using the site-specific phiC31 integrase (Markstein, et al. (2008) Nat. Genet. 40(4):476-483) to generate transgenic flies.
Analysis of Pathogenic Huntingtin Aggregation. Pathogenic Huntingtin-polyQ72-GFP protein aggregates (Zhang, et al. (2010) Genetics 184(4):1165-79) were imaged with an epifluorescence microscope and the number and total area of protein aggregates estimated with CELLPROFILER™. This analysis was done with male flies after aging at 25° C. for 30 days, and/or aging at 29° C. for 20 days. A custom-made script was used for image analysis in CELLPROFILER™.
Analysis of Huntingtin-GFP Aggregates in Drosophila Eye. Frozen Drosophila was used for imaging of the eyes using ZEISS SteREO Discovery.V12 microscope at a specific exposure time and consistent settings. The acquired gray scale images were then analyzed for the area occupied by aggregates (Huntingtin-GFP specks) using CELLPROFILER™ 3.0.0 pipeline.

[5] = test system: Drosophila heads and thoraces; experiment: Western blots of detergent-soluble and detergent-insoluble fractions of Drosophila heads and thoraces during aging; assay type: in vivo
Protocol: as §1
Western Blots of Detergent-Soluble and Detergent-Insoluble Fractions. Western blots for detergent-soluble and detergent-insoluble fractions were carried out as previously described (Demontis & Perrimon (2010) Cell 143(5):813-825). In brief, heads and thoraces were dissected from 30 male flies/sample and homogenized in ice-cold PBS with 1% TRITON™ X-100 containing protease and phosphatase inhibitors. Homogenates were centrifuged at 14,000 rpm at 4° C. and supernatants collected (TRITON™ X-100-soluble fraction). The remaining pellet was washed in ice-cold PBS with 1% TRITON™ X-100. The pellet was then resuspended in RIPA buffer containing 8M urea and 5% SDS, centrifuged at 14,000 rpm at 4° C., and the supernatant collected (TRITON™ X-100-insoluble fraction). Detergent-soluble and detergent-insoluble fractions were analyzed on 4-20% SDS-PAGE with anti-ubiquitin (Cell Signaling Technologies P4D1), anti-Ref(2)P/p62 (Abcam), anti-Atg8/GABARAP (Abcam), and/or anti-GFP (Cell Signaling Technologies) antibodies. Ponceau S staining, anti-Tubulin antibodies (Cell Signaling Technologies), and/or anti-actin antibodies were used as loading controls.
Soluble and Insoluble Protein Fractionation from Drosophila Tissues. Thoraces or heads were dissected from 30 male flies and homogenized in 100 μL ice-cold TRITON™ X-100 buffer (1% TRITON™ X-100 in PBS containing protease inhibitor and phosphatase inhibitor) for 5 minutes at highest speed. Homogenates were centrifuged at 14000 rpm at 4° C. for 10 minutes and supernatant collected (TRITON™ X-100-soluble fraction). The remaining pellet was washed in 400 μL of TRITON™ X-100 buffer, twice at 14000 rpm for 5 minutes at 4° C. The pellet was then resuspended in 100 μL 1× RIPA buffer containing 8M urea and 5% SDS at room temperature, centrifuged at 14000 rpm at 4° C. for 10 minutes, and supernatant was collected (TRITON™ X-100-insoluble fraction). Six μL of soluble/insoluble protein extracts were boiled with sample buffer containing DTT and separated by gel electrophoresis.

[6] = test system: Drosophila; experiment: Startle-induced negative geotaxis; assay type: in vivo; conditions: muscle-specific overexpression, compared to isogenic controls
Protocol: Startle-Induced Negative Geotaxis. Startle-induced negative geotaxis was carried out according to established methods. Specifically, flies were tapped and the number of flies that reached the top of the vial was scored after 20 seconds.

[7] = test system: Drosophila brains and retinas; experiment: Whole-mount immunostaining of Drosophila brains and retinas (poly-ubiquitin protein aggregates); assay type: in vivo; conditions: muscle-specific overexpression with Mhc-Gal4 or Act88F-GS-Gal4, compared to isogenic controls
Protocol: Whole-Mount Immunostaining of Drosophila Brains and Retinas. The immunostaining of brains and retinas was carried out using established methods (Demontis & Perrimon (2009) Development 136(6):983-93; Demontis & Perrimon (2010) Cell 143(5):813-825). In brief, retinas and brains were dissected, fixed for 30 minutes in phosphate-buffered saline (PBS) with 4% paraformaldehyde and 0.2% TRITON⋅ X-100 at room temperature, washed for >3 times in PBS with 0.2% TRITON⋅ X-100 at room temperature, and immunostained overnight at 4° C. with rabbit anti-poly-ubiquitin (FK2; Enzo Life Sciences) and anti-Ref(2)P/p62 antibodies (Abeam). After washes with PBS with 0.2% TRITON⋅ X-100, the samples were incubated for 2 hours at room temperature with secondary antibodies and phalloidin conjugated to a fluorescent dye sold under the tradename ALEXA FLUOR® 635. The samples were subsequently washed, mounted in antifade medium and imaged on a Zeiss LSM 880 confocal microscope.

[8] = Amylase activity assay of fly body homogenates; assay type: in vivo, Drosophila; conditions: Amyrel overexpression, in comparison with isogenic controls
Protocol: Amylase Activity Assay. Colorimetric detection of amylase activity was performed according to the manufacturer's instructions (Sigma-Aldrich). In brief, five flies were decapitated and placed on ice in a 1.5 ml tube. The decapitated bodies were homogenized in 150 μL of Amylase Assay Buffer (AAB). The homogenate was collected after high-speed centrifugation for 10 minutes. For this assay, 5 μL the body homogenate or standard was added to a well in a 96-well plate and brought up to 50 μL with AAB and water, respectively. A master reaction mix was made to conduct a colorimetric assay, and 100 μL was added to each well. The plate was mixed well using a horizontal shaker. After 2-3 minutes the absorbance was measured at 405 nm.

Molecule | circulating (hemolymph) maltose [1] | whole body maltose [1] | age-related neurodegeneration (retinal degeneration, rough eye phenotype) induced by tau^V337M [2] | induction of Hsp23 gene [3] [fold] | genes involved in proteostasis, including several chaperones and proteases ([3]; compared to isogenic controls) | pathogenic huntingtin (Htt-Q72-GFP) aggregates, total area and number of speckles [4] | levels of polyubiquitinated proteins in heads ([5]; flies with pathogenic Huntingtin (Htt-polyQ120) expression in the retina, muscle-specific overexpression) | proteostasis in skeletal muscle ([5]; muscle-specific overexpression) | age-related accumulation of proteasome substrates (poly-ubiquitinated proteins, detergent-insoluble fractions) in head tissues ([5]; muscle-specific overexpression, 10, 30 and 60 days) | Atg8 conversion and levels (autophagy) ([5]; muscle-specific overexpression, heads) | capacity for startle-induced negative geotaxis during aging [6] | percentage of flies unable to respond to stimulation, increase with aging [6] | amount of poly-ubiquitin protein aggregates in the retina and brain in old age [7] | amylase activity [8]
Amyrel: a secreted amylase enzyme (Drosophila myokine), GENBANK Accession No. NP_477262.1, given by transgenic overexpression (protein, UniProt O18408 20-493, looked up) Alpha-amylase-related protein: QHNPHWWGNRNTIVHLFEWKWSDIAQECESFLGPRGFAGVQVSPVNENILSAGRPWWERYQPISYKLTTRSGNEEEFGDMVRRCNDVGVRIYVDVLLNHMSGDFDGVAVGTAGTEAEPSKKSFPGVPYTAQDFHPTCEITDWNDRFQVQQCELVGLKDLDQSSDWVRSKLIEFLDHLIELGVAGFRVDAAKHMASEDLEYIYSSLSNLNIDHGFPHNSRPFIFQEVIDHGHETVSRDEYKDLGAVTEFRFSEEIGNAFRGNNALKWLQSWGTDWGFLPSGQALTFVDNHDNQRDAGAVLNYKSPRQYKMATAFHLAYPYGISRVMSSFAFDDHDTPPPQDAQERIISPEFDADGACVNGWICEHRWRQIYAMVGFKNAVRDTEITGWWDNGDNQISFCRGNKGFLAINNNLYDLSQDLNTCLPAGTYCDVISGSLIDGSCTGKSVTVNENGYGYIHIGSDDFDGVLALHVDAKV | increase | increase | largely prevented | > 8 | induced | less so; also recorded: decrease in an age-dependent manner | reduced the levels of polyubiquitinated proteins | did not regulate proteostasis in skeletal muscle | reduced the age-related accumulation of proteasome substrates; also recorded: reduced the age-related increase in polyubiquitinated proteins | not significantly modulated | preserves the capacity for negative geotaxis | less so | significantly reduced | increase
Amy-d: other Drosophila amylase, transgenic overexpression (protein, UniProt P81641 19-494, looked up) Alpha-amylase B: QFDTNYASGRSGMVHLFEWKWDDIAAECENFLGPNGYAGVQVSPVNENAVKDSRPWWERYQPISYKLETRSGNEEQFASMVKRCNAVGVRTYVDVVFNHMAADGGTYGTGGSTASPSSKSYPGVPYSSLDFNPTCAISNYNDANEVRNCELVGLRDLNQGNSYVQDKVVEFLDHLIDLGVAGFRVDAAKHMWPADLAVIYGRLKNLNTDHGFASGSKAYIVQEVIDMGGEAISKSEYTGLGAITEFRHSDSIGKVFRGKDQLQYLTNWGTAWGFAASDRSLVFVDNHDNQRGHGAGGADVLTYKVPKQYKMASAFMLAHPFGTPRVMSSFSFTDTDQGPPTTDGHNIASPIFNSDNSCSGGWVCEHRWRQIYNMVAFRNTVGSDEIQNWWDNGSNQISFSRGSRGFVAFNNDNYDLNSSLQTGLPAGTYCDVISGSKSGSSCTGKTVTVGSDGRASIYIGSSEDDGVLAIHVNAKL | – | – | – | – | – | reduced | – | – | – | – | – | – | – | –
Amy-p: other Drosophila amylase, transgenic overexpression (protein, UniProt P08144 19-494, looked up) Alpha-amylase A: QFDTNYASGRSGMVHLFEWKWDDIAAECENFLGPNGYAGVQVSPVNENAVKDSRPWWERYQPISYKLETRSGNEEQFASMVKRCNAVGVRTYVDVVFNHMAADGGTYGTGGSTASPSSKSYPGVPYSSLDFNPTCAISNYNDANEVRNCELVGLRDLNQGNSYVQDKVVEFLDHLIDLGVAGFRVDAAKHMWPADLAVIYGRLKNLNTDHGFASGSKAYIVQEVIDMGGEAISKSEYTGLGAITEFRHSDSIGKVFRGKDQLQYLTNWGTAWGFAASDRSLVFVDNHDNQRGHGAGGADVLTYKVPKQYKMASAFMLAHPFGTPRVMSSFSFTDTDQGPPTTDGHNIASPIFNSDNSCSGGWVCEHRWRQIYNMVAFRNTVGSDEIQNWWDNGSNQISFSRGSRGFVAFNNDNYDLNSSLQTGLPAGTYCDVISGSKSGSSCTGKTVTVGSDGRASINIGSSEDDGVLAIHVNAKL | – | – | – | – | – | reduced | – | – | – | – | – | – | – | –
